Legend:
Test in all cases: filter
[1] = target: PDGF-BB (platelet-derived growth factor BB) (Homo sapiens) (UniProt P01127)
[2] = test system: T1, VEGF-121 (Homo sapiens), P15692-9
T1 sequence: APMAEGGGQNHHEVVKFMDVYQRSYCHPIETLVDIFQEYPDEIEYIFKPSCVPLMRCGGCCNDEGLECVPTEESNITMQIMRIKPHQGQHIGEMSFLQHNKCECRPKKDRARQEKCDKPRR

[3] = test system: T2, VEGF-165 (Homo sapiens), P15692-4
T2 sequence: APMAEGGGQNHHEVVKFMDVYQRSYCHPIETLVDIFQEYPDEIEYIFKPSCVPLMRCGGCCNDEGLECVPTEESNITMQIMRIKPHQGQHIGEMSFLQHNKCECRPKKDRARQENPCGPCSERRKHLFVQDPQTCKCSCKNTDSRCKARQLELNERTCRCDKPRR

[4] = Bn-dU, MBn-dU, Nap-dU, 2'-OMe, C3, 6 Heg between parts
[5] = Bn-dU, MBn-dU, Nap-dU, 2'-OMe, C3, 5 Heg between parts
[6] = PDGF-VEGF, no Heg linker, NapdU, BndU

Chain of PDGF-BB (platelet-derived growth factor BB) (Homo sapiens) (P01127 82-190): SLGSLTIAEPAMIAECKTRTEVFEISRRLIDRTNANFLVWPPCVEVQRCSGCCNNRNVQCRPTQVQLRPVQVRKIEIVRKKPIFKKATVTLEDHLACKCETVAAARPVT

CCGTTCAAGTGCTTGTAGGATTTAAATGGCGACAGCATGTATGCACATCT [5169-4_98]
Kd ([1]; VEGF-1Heg-PDGF, NapdU, 2'-OMe): 0.0053 nM | Kd ([2]; VEGF-1Heg-PDGF, NapdU, 2'-OMe): 0.14 nM

TTACGTTACCGCGTTTATAGCGCCGTTCAAGTGCTTGTAGGATTTAAATGG [4149-8_417]
Kd [1, 4]: 0.011 nM | Kd [2, 4]: 0.043 nM | Kd [3, 4]: 0.065 nM

CCGTTCAAGTGCTTGTAGGATTTAAATGGCGACAGCATGTATGCACATCT [5169-4_95]
Kd ([1]; VEGF-4Heg-PDGF, NapdU, 2'-OMe): 0.0012 nM | Kd ([2]; VEGF-4Heg-PDGF, NapdU, 2'-OMe): 0.043 nM

TTACGTTACCGCGTTTATAGCGCCGTTCAAGTGCTTGTAGGATTTAAATGG [4149-8_416]
Kd [1, 5]: 0.0089 nM | Kd [2, 5]: 0.041 nM | Kd [3, 5]: 0.03 nM

CCGTTCAAGTGCTTGTAGGATTTAAATGGCGACAGCATGTATGCACATCT [5169-4_96]
Kd ([1]; VEGF-3Heg-PDGF, NapdU, 2'-OMe): 0.0045 nM | Kd ([2]; VEGF-3Heg-PDGF, NapdU, 2'-OMe): 0.076 nM

CGACAGCATGTATGCACATCTCCGTTCAAGTGCTTGTAGGATTTAAATGG [5169-4_103]
Kd ([1]; PDGF-2Heg-VEGF, NapdU, 2'-OMe): 0.0061 nM | Kd ([2]; PDGF-2Heg-VEGF, NapdU, 2'-OMe): 0.12 nM

CGACAGCATGTATGCACATCTCCGTTCAAGTGCTTGTAGGATTTAAATGG [5169-4_100]
Kd ([1]; PDGF-5Heg-VEGF, NapdU, 2'-OMe): 0.0015 nM | Kd ([2]; PDGF-5Heg-VEGF, NapdU, 2'-OMe): 0.056 nM

AGCCGTTCAAGTGCTTGTAGGATTTAAAT [4867-31_53]
Kd ([2]; NapdU at P): 19 nM | Kd ([3]; NapdU at P): 3.2 nM

TTACGTTACACGCGTTTATAGCGCCGTTCAAGTGCTTTAGATTTAAATG [4149-8_317]
Kd [1, 6]: 0.0638 nM | Kd [2, 6]: 0.0809 nM

CCGTTCAAGTGCTTGTAGGATTTAAATGG [4867-31_426]
Kd ([2]; as 4867-31_192, PS 3' of 24, 3' inverted dT): 0.012 nM

CCGTTCAAGTGCTTGTAGGATTTAAATGG [4867-31_428]
Kd ([2]; as 4867-31_192, PS 3' of 26, 3' inverted dT): 0.0084 nM

CCCTCCATCAGCGTTCAAGTGCTTGTAGGATTTAAATGGAATTGGAGGA [4867-15_35]
Kd ([2]; P=Nap-dU, C3 spacer at 12): 3.4 nM

CCGTTCAAGTGCTTGTAGGATTTAAATGG [4867-31_162]
Kd ([2]; 2'-OMe-NapU at 23, other P are NapdU, target taken as VEGF-121): 8.9 nM

CCCTCATCAGCCGTTCAAGTGCTTGTAGGATTTAAATGGAATTGGAGGA [4867-15_29]
Kd ([2]; P=Nap-dU, C3 spacer at 6): 0.2 nM

AGCCGTTCAAGTGCTTGTAGGATTTAAATGGA [4867-31_67]
Kd ([2]; P=Nap-dU, 2'-OMe C3 (inferred, superscript lost)): 0.33 nM

CGACAGCATGTATGCACATCTCCGTTCAAGTGCTTGTAGGATTTAAATGG [5169-4_102]
Kd ([1]; PDGF-3Heg-VEGF, NapdU, 2'-OMe): 0.011 nM | Kd ([2]; PDGF-3Heg-VEGF, NapdU, 2'-OMe): 0.14 nM

CCCTCCATCACCGTTCAAGTGCTTGTAGGATTTAAATGGAATTGGAGGA [4867-15_34]
Kd ([2]; P=Nap-dU, C3 spacer at 11): 0.14 nM

CCGTTCAAGTGCTTGTAGGATTTAAATGG [4867-31_143]
Kd ([2]; NapdU at 4,5,10,13,14,16,21,22,23,27, rest DNA, SB18T, 37 C, Table 13 gives 0.14 nM): 0.17 nM

CGACAGCATGTATGCACATCTCCGTTCAAGTGCTTGTAGGATTTAAATGG [5169-4_104]
Kd ([1]; PDGF-1Heg-VEGF, NapdU, 2'-OMe): 0.0046 nM | Kd ([2]; PDGF-1Heg-VEGF, NapdU, 2'-OMe): 0.28 nM

CCGTTGAAGTGCTTGTAGGATTTAAATGGA [4867-31_146]
Kd ([2]; P=Nap-dU): 5.98 nM

CCGTTCAAGTGCTTGTAGGATTTAAATGG [4867-31_442]
Kd ([2]; as 4867-31_192, PS 3' of 17 as printed, 3' inverted dT): 0.015 nM

CCCCCATCAGCCGTTCAAGTGCTTGTAGGATTTAAATGGAATTGGAGGA [4867-15_27]
Kd ([2]; P=Nap-dU, C3 spacer at 4): 0.4 nM

CGACAGCATGTATGCACATCTCCGTTCAAGTGCTTGTAGGATTTAAATGG [5169-4_99]
Kd ([1]; PDGF-6Heg-VEGF, NapdU, 2'-OMe): 0.0021 nM | Kd ([2]; PDGF-6Heg-VEGF, NapdU, 2'-OMe): 0.12 nM

CCGTTCAAGTGCTTGTAGGATTTAAATGG [4867-31_445]
Kd ([2]; as 4867-31_192, PS 3' of 29, 3' inverted dT): 0.01 nM

CCGTTCAAGTGCTTGTAGGATTTAAATGG [4867-31_481]
Kd ([2]; as 4867-31_192 plus 2'-OMe C1 and PS 3' of A24,A25,A26, 3'-idT): 0.026 nM

AGCCGTTCAAGTGCTTGTAGGATTTAAATGGA [4867-31_96]
Kd ([2]; P=Nap-dU, 2'-OMe A32): 0.13 nM

CCGTTCAAGTGCTTGTAGGATTTAAATGG [4867-31_438]
Kd ([2]; as 4867-31_192, PS 3' of 6, 3' inverted dT): 0.013 nM

CGACAGCATGTATGCACATCTCCGTTCAAGTGCTTGTAGGATTTAAATGG [5169-4_101]
Kd ([2]; PDGF-4Heg-VEGF, NapdU, 2'-OMe): 0.13 nM

CCCTCCATCAGCCGTTCAAGTGCTTGTAGGATTTAAATGGAATTGAGGA [4867-15_68]
Kd ([2]; P=Nap-dU, C3 spacer at 45): 0.32 nM

CCCTCCATCAGCCGTTCAAGTGCTTGTAGGATTTAAATGGAATGGAGGA [4867-15_66]
Kd ([2]; P=Nap-dU, C3 spacer at 43): 0.11 nM

CCGTTCAAGTGCTTGTAGGATTTAAATGG [4867-31_475]
Kd ([2]; as 4867-31_192, 2'-OMe 1, PS 25): 0.026 nM

CCGTTCAAGTGCTTGTAGGATTTAAATGG [4867-31_429]
Kd ([2]; as 4867-31_192, PS 3' of 27, 3' inverted dT): 0.012 nM

AGCCGTTCAAGTGCTTGTAGGATTTAAATGGA [4867-31_85]
Kd ([2]; P=Nap-dU, 2'-OMe G21): 25.8 nM

CCCTCCTCAGCCGTTCAAGTGCTTGTAGGATTTAAATGGAATTGGAGGA [4867-15_30]
Kd ([2]; P=Nap-dU, C3 spacer at 7): 0.11 nM

CCCTCCATCAGCCGTTCAAGTGCTTGTAGATTTAAATGGAATTGGAGGA [4867-15_52]
Kd ([2]; P=Nap-dU, C3 spacer at 29): 0.2 nM

CCGTTCAAGTGCTTGTAGGATTTAAATGG [4867-31_191]
Kd ([2]; NapdU at P, 2'-OMe 9,15,17,18,28,29 as printed): 0.1 nM

CCGTTCAAGTGCTTGTAAGATTTAAATGGA [4867-31_151]
Kd ([2]; P=Nap-dU): 0.16 nM

AGCCGTTCAAGTGCTTGTAGGATTTAAATGGA [4867-31_95]
Kd ([2]; P=Nap-dU, 2'-OMe G31): 0.19 nM

CCCTCCATCAGCCGTTCAAGTGCTTGTAGGATTTAAATGGATTGGAGGA [4867-15_64]
Kd ([2]; P=Nap-dU, C3 spacer at 41): 0.22 nM

AGCCGTTCAAGTGCTTGTAGGATTTAAATGGA [4867-31_76]
Kd ([2]; 2'-OMe-U at 12 in place of NapdU, other P are NapdU, 2'-OMe-U for NapdU): 22.9 nM

AGCCGTTCAAGTGCTTTAGGATTTAAATGGA [4867-31_98]
Kd ([2]; C3 spacer at 17, all P are NapdU, C3 at G17): 0.1 nM

CCGTTCAAGTGCTTGTAGGATTTAAATGG [4867-31_439]
Kd ([2]; as 4867-31_192, PS 3' of 9, 3' inverted dT): 0.024 nM

CCGTTCAAGTGCTTGTATGATTTAAATGGA [4867-31_153]
Kd ([2]; P=Nap-dU): 0.21 nM

TTACGTTACCGCGTTTATAGCGCCGTTCAAGTGCTTGTAGGATTTAAATGG [4149-8_401]
Kd ([2]; PDGF_379-3Heg-VEGF_192, NapdU, BndU, MBndU, 2'-OMe, 5' amino linker): 0.027 nM

CCGTTCAAGTGCTTGTAGGATTTAAATGG [4867-31_479]
Kd ([2]; as 4867-31_192, 2'-OMe 1, PS 24): 0.026 nM

AGCCGTTCAAGTGCTTGTAGGATTTAAATGGA [4867-31_91]
Kd ([2]; P=Nap-dU, 2'-OMe A27): 0.35 nM

CCCTCCATCAGCCGTTCAAGTGCTTGTGGATTTAAATGGAATTGGAGGA [4867-15_51]
Kd ([2]; P=Nap-dU, C3 spacer at 28): 1.6 nM

CCGTTCAAGTGCTTTAGGATTTAAATGG [4867-31_188]
Kd ([2]; NapdU at P, C3 spacer 15, 2'-OMe 9,17,18,28,29 as printed): 0.038 nM

CCGTTCAAGTGCTTGTAGGATTTAAATGGCGACAGCATGTATGCACATCT [5169-4_97]
Kd ([1]; VEGF-2Heg-PDGF, NapdU, 2'-OMe): 0.0037 nM | Kd ([2]; VEGF-2Heg-PDGF, NapdU, 2'-OMe): 0.1 nM

AGCCGTTCAAGTGCTTGTAGGATTTAAATGGA [4867-31_86]
Kd ([2]; P=Nap-dU, 2'-OMe A22): 6.21 nM

CCCTCCATCAGCCGTTCAAGTGCTTGTAGGATTTAAATGAATTGGAGGA [4867-15_63]
Kd ([2]; P=Nap-dU, C3 spacer at 40): 15 nM

CCGTTCAAGTGCTTGTAGGATTTAAATGG [4867-31_416]
Kd ([2]; as 4867-31_192, PS 3' of 10, 3' inverted dT): 0.0093 nM

CCGTTCAAGTGCTTGTAGGATTTAAATGG [4867-31_420]
Kd ([2]; as 4867-31_192, PS 3' of 14, 3' inverted dT): 0.018 nM

CCGTTCAAGTGCTTGTAGGATTTAAATGG [4867-31_425]
Kd ([2]; as 4867-31_192, PS 3' of 22 or 23 (printed P1-P2), 3' inverted dT): 0.016 nM

AGCCGTTCAAGTGCTTGTAGGATTTAAATGGA [4867-31_77]
Kd ([2]; P=Nap-dU, 2'-OMe G13): 6.64 nM

CCGTTAAAGTGCTTGTAGGATTTAAATGGA [4867-31_145]
Kd ([2]; P=Nap-dU): 3.08 nM

CCGTTCAAGTGCTTTAGGATTTAAATGG [4867-31_187]
Kd ([2]; 2'-OMe G9,A17, C3 spacer at 15, all P are NapdU, target taken as VEGF-121): 0.032 nM
